According to US20160376333A1 (University of Washington, published 2016):

T1: Epstein-Barr virus BHRF1 a.a. 1-161 with C-terminal avi-6his tag (Epstein-Barr virus)
T1 construct: also called EBV BHRF1; BHRF1-biotin
T1 chain: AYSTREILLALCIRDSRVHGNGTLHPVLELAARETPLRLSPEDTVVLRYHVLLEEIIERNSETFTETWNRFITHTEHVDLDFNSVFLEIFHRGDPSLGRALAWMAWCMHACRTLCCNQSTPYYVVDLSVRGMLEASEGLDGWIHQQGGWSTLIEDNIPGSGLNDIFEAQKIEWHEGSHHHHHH

B1: Index 42 (designed binder)
chain: GQQEEQFIEDFKKEVLRAADDAKDDMEKRAEEFLKKDGDDNEKKRKILKWIADALEAIGDLFNAAQEAKRRAELYFKLGLLKKERKEEAEEEAEKAKEEASKKLHKAAREARIKMEKG
B2: Index 52 (designed binder)
chain: GNDKEKFREDVKKKAKYALWKLKKLADEAKERALKFDPSEEMKREFTLEWIAWALEAIGDIFNAWLDGKKYADEAKKQGKARKEEAEETKKEATRIAKEAHEKASELARKILYHMLLG
B3: Index 55 (designed binder)
chain: GEEAEKLIKEAKDKFEDLREKAEELLYKMWLIRYLSSKDTKRGEIYTKKWIAIMLMMIGDAFNMALRARLYLEERRKRGEKHEEEAEEKERRARWEQEDAYKKAKKGAKRARLYDKLG
B4: Index 61 (designed binder)
chain: GEHLDELLLKLLWLAIQFAERAKLTIELWKLWGKITQSYNEWAEKAARDWIAAALMIIGDMFNHKQKAEEEAKKFAKKGLKRKEELEELLKKLEEFIKRAKKLIKETAQKHEEASKMG
B5: Index 62 (designed binder)
chain: GKLGEELREDAEKKGEEDMRRFERRIREIKRKLKFGYDFEQRKREATHKWIAFALEMIGDAFNFAQKLERALELFKKWNIYSEDDLRELKKRFEEAKEKLKKFADRIRDEGLKAVLLG
B6: Index 53 (designed binder)
chain: GHVAEEEIRRFLRKAEKVLQEARRKMEKRRREAEEHDTTTWLLARGTIEWIADALMLIGDAFNFRREAYIRGELYKKFGLIREDDLKDRLKEADQRLDEFAKKMALFGLELHLRLREG
B7: Index 68 (designed binder)
chain: GVSIEWAFDFLENKAEEDAREARRLAQKLAEEFFKHSAREEDRAKLTKKWIAVALMIIGDIFNVEQFTKQQGEEFVKRGLRSEDDFKEYLRKMEEKKEEAERIAKRAKDDMLKARDLG
B8: Index 44 (designed binder)
chain: GESGEWILEKTREKIERAIRDAEKKLRLIILLIRLFHPGDDLRALFAAIWIAAELELIGDIFNEKQDAEEKFKELLKKNQFRWEELWRKWLILEWIFQKARRKSKELAERAKKAFDFG
B9: Index 56 (designed binder)
chain: GESAEKWRERLREKAGYWAEYAFWLADEAEKRAKIYSASSERRAEWTMRWIAIALAAIGDVFNEGQKADEKFDELKKQNKRSDDDLDDYKDKFKEEVEKALRKLLKAGDKIADLAEQG
B10: Index 43 (designed binder)
chain: GKKAEEVLKEARKLHEAQLRYAYLMMKDWREKKQQEEKQTQREEKWTAWWIALMLMAIGDIFNFAEWAKEELDKLREKGLVEKKKAEEAKEKAEKLAEEASRRASEFAQLFAKWDKEG
B11: Index 49 (designed binder)
chain: GWSKDWVLEWLREKLEEIDREALWKFILIWIEKMLGVDDDEQRRKDAAKWIAGSLEAIGDIFNAMMWAKRLLEWLEKANLVRREELEKAKQKAEELAKKAALRAAIYSKIAEEWLWKG
B12: Index 64 (designed binder)
chain: GLSGDDAEDFARQEIEKRAREAEEKARKLIWLASKYDAKREEALKFHLRWIAFALMMIGDAFNAEEIAREMLEIARELGLTREEEAKEKLEKIRKKETEASKKMAERGRRLDNQANNG
B13: Index 65 (designed binder)
chain: GNDLKDIARQIEEQAKKALDDMAKLIRELAEKAEKFYPSKDDIRRLTHYWIAAALMAIGDAFNRLQEARRRAEWLRKWGLRREEEAEKAKKEAEERHERAKELAHKMGDEMEEKLKRG
B14: Index 51 (designed binder)
chain: GWTALWLKDFTEQEARKKFREALYYGWMMAMRALEHQLQADELAMWTALWIAAMLEAIGDMFNDKLRAEKYALLLIWLNLYHKDIAEKWREEHEEKLKEALQEMFEAAEKFDKFAKFG
B15: Index 45 (designed binder)
chain: GYSLDDFLKLAKLLAELLKRFIRKEAERLRELKEWLLDTTLGRLILTLEWIAIELMIIGDIFNAKMLLDKFAKYAEWLGLMKEEEAKQAKKLAKLLLDEVKDEARKKADDGEKFAEEG
B16: Index 58 (designed binder)
chain: GEKAKKLEEYAREEIERALREGGDLMEEEREFGEKTELTTEWKHRAMAYWIAAALMIIGDGFNALQFIEEEGRKFIRKGEFARQKIEEHKERAKERLEKALKQAKKRGDELDRFARLG
B17: Index 40 (designed binder)
chain: GNEAEQRREEFKEIMEKKKDEAEKKSEKIKRLALAFDLSDDDKTKATDEWIAISLEIIGDAFNFGEGLKDEAKRRKKRGLKRDEEVDKFEKIAEQAIEELRKLAEEADERGAKHLRDG
B18: Index 54 (designed binder)
chain: GDKHEEAKEEAEKKFEKLRIEARLKAEWLKKAGKYGLQLQELWAKLSDYWIAFALEIIGDLFNFLEEHKEKIEKDLKKGEALDDRADDILKDLEKKAKEVSKHAMKLGREAQQFIELG
B19: Index 66 (designed binder)
chain: GRSKDDATKEAWERLERLLKEFKEKAEKLRDKAQAHYVYKQFALKVTILWIAWALKLIGDAFNFIEEAEKKMRENRERNLISEDDAREEKRKLEEFARRASKKANKIGDDLDRQLELG
B20: Index 38 (designed binder)
chain: GEKLKKLAEELEKKFRKLFFILKDELDRAYLIALKTQVQRQELARDTKLWIAVALMIIGDLFNAEIQGKELRDKLIKKNQVEEQKAKEFWKKWEEVKQRAEELIKKGGEMVERLADYG
B21: Index 46 (designed binder)
chain: GRDGERVVKWAKNQHENTVDEAKDKMDNQEDEMRKKNADDEKLRKETHKWIAFALEAIGDVFNDAMQAFELLERFKKFGQQEQKKLDEFKEKVERLAREASRKLTYLGKRFALDIESG
B22: Index 39 (designed binder)
chain: GKKYLKAARLALYLLWEAYLRGYLNLLLDELEAEFFDPHDERKIRYTINWIADALMLIGDLFNARLKMEKALWELKKEGKLREEDYEKMERLFRKWMELAFKWLEHFREMAEKAKKKG
B23: Index 63 (designed binder)
chain: GDDKEKVKDYAKKRALEDVLRAKELAEKFIDEAKKSDHSKQNERQYIIAWIAFMLMAIGDVFNAMMEAKRLAELLKRLGLRRWEEAEEVKQKAEELAEEASRLLADLGKDFAKKIEQG
B24: Index 57 (designed binder)
chain: GDLKEELKERAKKIIRRALDEAKDAEDLIKKEAEKRYVTTEMATKFVAWWIAGALMIIGDIFNAAREVKERAEKALKWGVLSQDDIKELLLELENLEQEAKERAKEFGEKAEKFKKMG
B25: Index 41 (designed binder)
chain: GEQEDKVKERAKRGALERAREMFEKMRKAIYLAELYINNDEGKTKLTDRWIAFALMMIGDIFNIALEARLEALKLVLKGLRSQEDAEKVKKLAEEAEREAAKRAAKLGDKMDEKEHEG
B26: Index 48 (designed binder)
chain: GEKGKEKAQKFRDIIKDILEEAIRLAKDLAEDAKKFDLKLEKLLEATLKWIAAALMAIGDLFNFKDLAEKEVRERHDRGEISSDRRDKYEKEAREGADEAAKELSKLAKIAEKKILEG
B27: Index 50 (designed binder)
chain: GKRAEELREEAEERAKEAFKETEQKLREVEERSRQTLARDEELRKAALLWIAAALMGIGDLFNKKEKGKEALEKEEKNGKRRTERAEREKERLEKEVSREAQRFKKKGEEEEKKHKYG
B28: Index 59 (designed binder)
chain: GITLEKLWKEAKEKIRKREDEALLKAEWFKKKANNVLDLNDMKAKMTAKWIALALMAIGDIFNYLLETEIKARLLVRLGLFRQEEAEKKKEEAKEEAIKSSRNIAKRGEEAAKQMEQG
B29: Index 60 (designed binder)
chain: GRQEDEIKDEATKRALEILQKLEQKVRKAKKFAKYGLLLQRWWAWITKVWIAAALDAIGDAFNLGEELKRILEELRRRGLSSEEKAQEIKNWIEWLEKWVAIMAKLFGEELEKQFKQG

Target: T1, Epstein-Barr virus BHRF1 a.a. 1-161 …
Assay: yeast display library, FACS sort at 100 nM BHRF1, deep sequencing

**Q.** How did the Log2 enrichment ratio turn out when B1 was run?
**A.** -3.63 log2

**Q.** Which Log2 enrichment ratio does the source give for B2 here?
**A.** -0.83 log2

**Q.** Which Log2 enrichment ratio does the source give for B3 here?
**A.** -2.69 log2

**Q.** Which Log2 enrichment ratio does the source give for B4 here?
**A.** -2.79 log2

**Q.** B5 was tested. Which Log2 enrichment ratio did it give?
**A.** -3.21 log2

**Q.** With B6 as the binder, how does the Log2 enrichment ratio read?
**A.** -0.29 log2

**Q.** How did the Log2 enrichment ratio turn out when B7 was run?
**A.** -2.57 log2

**Q.** For B8, which Log2 enrichment ratio is on record?
**A.** -3.29 log2

**Q.** How did the Log2 enrichment ratio turn out when B9 was run?
**A.** -3.49 log2

**Q.** Which Log2 enrichment ratio does the source give for B10 here?
**A.** -2.44 log2

**Q.** B11 was tested. Which Log2 enrichment ratio did it give?
**A.** -2.7 log2

**Q.** With B12 as the binder, how does the Log2 enrichment ratio read?
**A.** -3.51 log2

**Q.** How did the Log2 enrichment ratio turn out when B13 was run?
**A.** -3.2 log2

**Q.** B14 was tested. Which Log2 enrichment ratio did it give?
**A.** -2.53 log2

**Q.** For B15, which Log2 enrichment ratio is on record?
**A.** -2.44 log2

**Q.** With B16 as the binder, how does the Log2 enrichment ratio read?
**A.** -2.36 log2

**Q.** With B17 as the binder, how does the Log2 enrichment ratio read?
**A.** -3.7 log2

**Q.** Which Log2 enrichment ratio does the source give for B18 here?
**A.** -3.22 log2

**Q.** Which Log2 enrichment ratio does the source give for B19 here?
**A.** -2.03 log2

**Q.** How did the Log2 enrichment ratio turn out when B20 was run?
**A.** -1.71 log2

**Q.** With B21 as the binder, how does the Log2 enrichment ratio read?
**A.** -3.41 log2

**Q.** For B22, which Log2 enrichment ratio is on record?
**A.** -2.08 log2

**Q.** For B23, which Log2 enrichment ratio is on record?
**A.** -2.52 log2

**Q.** With B24 as the binder, how does the Log2 enrichment ratio read?
**A.** -1.97 log2

**Q.** B25 was tested. Which Log2 enrichment ratio did it give?
**A.** -2.17 log2

**Q.** For B26, which Log2 enrichment ratio is on record?
**A.** -2.8 log2

**Q.** Which Log2 enrichment ratio does the source give for B27 here?
**A.** -3.79 log2

**Q.** How did the Log2 enrichment ratio turn out when B28 was run?
**A.** -2.86 log2

**Q.** How did the Log2 enrichment ratio turn out when B29 was run?
**A.** -2.91 log2

Target: T1, Epstein-Barr virus BHRF1 a.a. 1-161 …
Assay: yeast display library, FACS sort at 400 nM BHRF1, deep sequencing

**Q.** For B1, which Log2 enrichment ratio is on record?
**A.** -3.15 log2

**Q.** B2 was tested. Which Log2 enrichment ratio did it give?
**A.** -0.2 log2

**Q.** Which Log2 enrichment ratio does the source give for B3 here?
**A.** -3.29 log2

**Q.** Which Log2 enrichment ratio does the source give for B4 here?
**A.** -3.54 log2

**Q.** How did the Log2 enrichment ratio turn out when B5 was run?
**A.** -2.65 log2

**Q.** Which Log2 enrichment ratio does the source give for B6 here?
**A.** 0.4 log2

**Q.** B7 was tested. Which Log2 enrichment ratio did it give?
**A.** -3.63 log2

**Q.** B8 was tested. Which Log2 enrichment ratio did it give?
**A.** -3.16 log2

**Q.** Which Log2 enrichment ratio does the source give for B9 here?
**A.** -3.81 log2

**Q.** Which Log2 enrichment ratio does the source give for B10 here?
**A.** -3.04 log2

**Q.** Which Log2 enrichment ratio does the source give for B11 here?
**A.** -1.22 log2

**Q.** With B12 as the binder, how does the Log2 enrichment ratio read?
**A.** -1.68 log2

**Q.** With B13 as the binder, how does the Log2 enrichment ratio read?
**A.** -2.31 log2

**Q.** For B14, which Log2 enrichment ratio is on record?
**A.** -2.43 log2

**Q.** B15 was tested. Which Log2 enrichment ratio did it give?
**A.** -3.17 log2

**Q.** For B16, which Log2 enrichment ratio is on record?
**A.** -2.11 log2

**Q.** With B17 as the binder, how does the Log2 enrichment ratio read?
**A.** -4.69 log2

**Q.** B18 was tested. Which Log2 enrichment ratio did it give?
**A.** -2.24 log2

**Q.** With B19 as the binder, how does the Log2 enrichment ratio read?
**A.** -2.49 log2

**Q.** B20 was tested. Which Log2 enrichment ratio did it give?
**A.** -1.46 log2

**Q.** Which Log2 enrichment ratio does the source give for B21 here?
**A.** -3.6 log2

**Q.** With B22 as the binder, how does the Log2 enrichment ratio read?
**A.** -2.01 log2

**Q.** For B23, which Log2 enrichment ratio is on record?
**A.** -2.41 log2

**Q.** How did the Log2 enrichment ratio turn out when B24 was run?
**A.** -2.85 log2

**Q.** For B25, which Log2 enrichment ratio is on record?
**A.** -2.39 log2

**Q.** For B26, which Log2 enrichment ratio is on record?
**A.** -2.33 log2

**Q.** B27 was tested. Which Log2 enrichment ratio did it give?
**A.** -3.47 log2

**Q.** How did the Log2 enrichment ratio turn out when B28 was run?
**A.** -2.36 log2

**Q.** For B29, which Log2 enrichment ratio is on record?
**A.** -2.63 log2
